In test [1] the target is FcRn (UniProt P55899).
In test [2] the target is FCGR2A (167R) (CD32a) (UniProt P12318).
Test [3] concerns the target FCGR1 (CD64) (UniProt P12314).
The target of test [4] is FCGR3A (176Phe/F158) (CD16a) (UniProt P08637).
Test [5] deals with FCGR2A (167H) (CD32a) (UniProt P12318).
The target of test [6] is FCGR3A (176Val/V158) (CD16a) (UniProt P08637).
Test [7] concerns the target FCGR3A (176Phe/F158) (CD16a) (UniProt P08637). This is another data set of the same source.
Test [8] addresses FCGR3A (176Val/V158) (CD16a) (UniProt P08637). The source holds these as a separate data set.
The target of test [9] is FCGR1 (CD64) (UniProt P12314). The source holds these as a separate data set.
In test [10] the target is FCGR2A (167H) (CD32a) (UniProt P12318). This is another data set of the same source.
The target in test [11] is FcRn (UniProt P55899). This is another data set of the same source.
Test [12] addresses FCGR2A (167R) (CD32a) (UniProt P12318). The source holds these as a separate data set.

Read-outs that look alike come from different tables or passages of the source.

This note sets out measurements from article PMC10751915.

UniProt P12314, sequence (P12314 16-292): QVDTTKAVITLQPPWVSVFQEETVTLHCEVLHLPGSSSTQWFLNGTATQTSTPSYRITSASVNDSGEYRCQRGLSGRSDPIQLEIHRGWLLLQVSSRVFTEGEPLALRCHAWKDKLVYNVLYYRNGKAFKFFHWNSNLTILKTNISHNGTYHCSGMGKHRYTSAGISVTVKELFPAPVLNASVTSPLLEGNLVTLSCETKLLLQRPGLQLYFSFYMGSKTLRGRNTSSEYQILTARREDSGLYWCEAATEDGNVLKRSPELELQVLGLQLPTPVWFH
UniProt P55899, sequence (P55899 24-297): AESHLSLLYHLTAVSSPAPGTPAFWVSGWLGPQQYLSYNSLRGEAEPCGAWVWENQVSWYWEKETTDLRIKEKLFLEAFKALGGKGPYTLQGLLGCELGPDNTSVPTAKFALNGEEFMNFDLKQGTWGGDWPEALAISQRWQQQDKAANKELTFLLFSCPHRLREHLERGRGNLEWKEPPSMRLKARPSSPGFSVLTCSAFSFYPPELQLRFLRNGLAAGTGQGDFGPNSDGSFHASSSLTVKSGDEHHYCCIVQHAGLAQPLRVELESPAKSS

With “KVA12123 (YTE, hIgG1) (from UniProt P01857)”, the IC50 (in general, the concentration that gives 50% inhibition) is 0.97 nM with FcRn [1]; 286 nM with FCGR2A (167R) (CD32a) [2]; 6 nM with FCGR1 (CD64) [3]; 385 nM in [4]; 137 nM with FCGR2A (167H) (CD32a) [5]; 505 nM in [6].

In the case of “KVA12.1 (WT, hIgG1) (from UniProt P01857)”, the half-maximal inhibitory concentration (IC50) in test [7] was 53.3 nM; in [8], 95.1 nM; with FCGR1 (CD64) [9], 1.59 nM; in the test with FCGR2A (167H) (CD32a) [10] it was 29.1 nM; with FcRn [11] it was 5.2 nM; with FCGR2A (167R) (CD32a) [12], 67.3 nM.
